In article PMC10458328, “The “life-span” of lytic polysaccharide monooxygenases (LPMOs) correlates to the number of turnovers in the reductant peroxidase reaction” (The Journal of Biological Chemistry, 2023):

Assays:
purified protein [1] = substrate: O=C1O[C@H]([C@@H](O)CO)C(O)=C1O; assay: purified protein; format: biochemical, Neurospora crassa; details: H2O2 co-substrate (true Km from kcat app vs [AscA]), 50 mM sodium acetate pH 5.0, 25 °C, no polysaccharide, ping-pong
purified protein [2] = substrate: O=C1O[C@H]([C@@H](O)CO)C(O)=C1O; assay: purified protein; format: biochemical, Streptomyces coelicolor; details: H2O2 co-substrate (true Km from kcat app vs [AscA]), 50 mM sodium acetate pH 5.0, 25 °C, no polysaccharide, ping-pong

B1: NcAA9C (Neurospora crassa OR74A) (protein)
chain: HTIFQKVSVNGADQGQLKGIRAPANNNPVTDVMSSDIICNAVTMKDSNVLTVPAGAKVGHFWGHEIGGAAGPNDADNPIAASHKGPIMVYLAKVDNAATTGTSGLKWFKVAEAGLSNGKWAVDDLIANNGWSYFDMPTCIAPGQYLMRAELIALHNAGSQAGAQFYIGCAQINVTGGGSASPSNTVSFPGAYSASDPGILINIYGGSGKTDNGGKPYQIPGPALFTCPAGGSGGSSPAPATTASTPKPTSASAPKPVSTTASTPKPTNGSGSGTGAAHSTKCGGSKPAATTKASNPQPTNGGNSAVRAAALYGQCGGKGWTGPTSCASGTCKFSNDWYSQCLP
notes: N-terminal His not methylated; copper-saturated; eps280 46,910
Km (purified protein [1]): 145 ± 4 µM | kcat (purified protein [1]): 5.3 ± 0.1 s⁻¹ | kcat/Km (purified protein [1]): 36000 ± 1000 M⁻¹ s⁻¹

B2: ScAA10C (Streptomyces coelicolor A3(2)) (protein)
chain: HGVAMMPGSRTYLCQLDAKTGTGALDPTNPACQAALDQSGATALYNWFAVLDSNAGGRGAGYVPDGTLCSAGDRSPYDFSAYNAARSDWPRTHLTSGATIPVEYSNWAAHPGDFRVYLTKPGWSPTSELGWDDLELIQTVTNPPQQGSPGTDGGHYYWDLALPSGRSGDALIFMQWVRSDSQENFFSCSDVVFDGGNGEVTGIRGSGSTPDPDPTPTPTDPTTPPTHTGSCMAVYSVENSWSGGFQGSVEVMNHGTEPLNGWAVQWQPGGGTTLGGVWNGSLTSGSDGTVTVRNVDHNRVVPPDGSVTFGFTATSTGNDFPVDSIGCVAP
notes: copper-saturated; eps280 75,775; called ScAA10A by slip in places
Km (purified protein [2]): 25 ± 2 µM | kcat (purified protein [2]): 0.64 ± 0.02 s⁻¹ | kcat/Km (purified protein [2]): 21000 ± 2000 M⁻¹ s⁻¹
